Test in all cases: single-molecule two-colour coincidence fluorescence spectroscopy; GFP- and Cherry-tagged proteins made in LTE, diluted to about 100 pM, confocal detection with 488 and 561 nm lasers, room temperature; coincidence ratio C = mCherry/(GFP + mCherry)
Series [1] concerns the molecule itself.
Series [2] concerns the target T1, RXRA (UniProt P19793 1-462).
T1 sequence (looked up): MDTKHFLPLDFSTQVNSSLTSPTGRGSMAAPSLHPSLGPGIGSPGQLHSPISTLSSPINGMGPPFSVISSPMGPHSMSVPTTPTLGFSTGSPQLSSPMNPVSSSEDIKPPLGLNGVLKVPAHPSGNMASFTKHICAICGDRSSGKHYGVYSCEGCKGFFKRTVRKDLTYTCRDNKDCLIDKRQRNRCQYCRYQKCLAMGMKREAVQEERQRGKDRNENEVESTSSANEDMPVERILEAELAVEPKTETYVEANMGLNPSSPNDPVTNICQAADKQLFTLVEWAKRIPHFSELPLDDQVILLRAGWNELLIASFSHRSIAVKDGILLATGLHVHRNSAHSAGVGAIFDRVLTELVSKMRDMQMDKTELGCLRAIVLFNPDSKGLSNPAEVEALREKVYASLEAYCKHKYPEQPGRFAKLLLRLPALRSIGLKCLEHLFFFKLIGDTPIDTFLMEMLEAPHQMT
To be noted: partners not purified.

In series [3] the target is human RBPJ (human, UniProt Q06330 1-500). To be noted: partners not purified.
human RBPJ, sequence (Q06330 whole entry): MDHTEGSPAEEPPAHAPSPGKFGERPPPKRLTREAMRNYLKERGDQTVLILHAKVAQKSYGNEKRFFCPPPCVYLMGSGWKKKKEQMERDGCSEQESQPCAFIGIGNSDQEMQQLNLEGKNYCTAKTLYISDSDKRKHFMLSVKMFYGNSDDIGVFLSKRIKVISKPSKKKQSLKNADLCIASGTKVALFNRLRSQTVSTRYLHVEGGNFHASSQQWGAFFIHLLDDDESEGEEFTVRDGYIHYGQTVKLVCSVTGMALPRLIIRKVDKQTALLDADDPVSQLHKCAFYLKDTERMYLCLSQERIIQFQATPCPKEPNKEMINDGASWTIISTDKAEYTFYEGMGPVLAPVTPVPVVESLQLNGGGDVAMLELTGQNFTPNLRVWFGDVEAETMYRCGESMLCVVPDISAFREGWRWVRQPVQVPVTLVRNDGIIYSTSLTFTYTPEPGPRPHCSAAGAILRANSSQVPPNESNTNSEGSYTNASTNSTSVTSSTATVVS
Series [4] deals with human MEF2C (human, UniProt Q06413 1-473). To be noted: partners not purified.
human MEF2C, sequence (Q06413 whole entry): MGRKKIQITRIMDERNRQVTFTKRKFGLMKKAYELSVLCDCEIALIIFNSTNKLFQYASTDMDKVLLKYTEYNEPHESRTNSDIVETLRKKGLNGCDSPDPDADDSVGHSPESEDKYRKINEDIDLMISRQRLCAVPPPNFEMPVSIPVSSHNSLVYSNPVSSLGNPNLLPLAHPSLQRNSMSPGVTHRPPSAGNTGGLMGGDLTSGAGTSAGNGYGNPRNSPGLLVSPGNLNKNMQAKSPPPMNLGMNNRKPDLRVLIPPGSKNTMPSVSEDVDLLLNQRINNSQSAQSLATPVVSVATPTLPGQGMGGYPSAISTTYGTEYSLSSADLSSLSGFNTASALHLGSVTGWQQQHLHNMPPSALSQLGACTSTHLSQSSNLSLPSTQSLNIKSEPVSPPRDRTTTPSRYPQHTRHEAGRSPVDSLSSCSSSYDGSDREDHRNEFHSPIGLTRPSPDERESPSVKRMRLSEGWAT

The text below walks through data of PMC6265484, “Homodimerization regulates an endothelial specific signature of the SOX18 transcription factor” (Nucleic Acids Research, 2018).

B1: full-length human SOX18 (natural protein, UniProt P35713 1-384, looked up)
chain: MQRSPPGYGAQDDPPARRDCAWAPGHGAAADTRGLAAGPAALAAPAAPASPPSPQRSPPRSPEPGRYGLSPAGRGERQAADESRIRRPMNAFMVWAKDERKRLAQQNPDLHNAVLSKMLGKAWKELNAAEKRPFVEEAERLRVQHLRDHPNYKYRPRRKKQARKARRLEPGLLLPGLAPPQPPPEPFPAASGSARAFRELPPLGAEFDGLGLPTPERSPLDGLEPGEAAFFPPPAAPEDCALRPFRAPYAPTELSRDPGGCYGAPLAEALRTAPPAAPLAGLYYGTLGTPGPYPGPLSPPPEAPPLESAEPLGPAADLWADVDLTEFDQYLNCSRTRPDAPGLPYHVALAKLGPRAMSCPEESSLISALSDASSAVYYSACISG
Take B1: the “stoichiometry N” value stood at 2 in series [1], 1 in series [2], 2 in series [3] and 2 in series [4].
